Measured values: article PMC8298602, “14-3-3-protein regulates Nedd4-2 by modulating interactions between HECT and WW domains” (Communications Biology, 2021)
Blank lines part the entries; values can stand above or below the binder they belong to.

B8: 14-3-3η (natural protein, human)
chain: MGDREQLLQRARLAEQAERYDDMASAMKAVTELNEPLSNEDRNLLSVAYKNVVGARRSSWRVISSIEQKTMADGNEKKLEKVKAYREKIEKELETVCNDVLSLLDKFLIKNCNDFQYESKVFYLKMKGDYYRYLAEVASGEKKNSVVEASEAAYKEAFEISKEQMQPTHPIRLGLALNFSVFYYEIQNAPEQACLLAKQAFDDAIAELDTLNEDSYKDSTLIMQLLRDNLTLWTSDQQDEEAGEGN
notes: 14-3-3 protein eta, human; also called 14-3-3 protein (eta isoform); 14-3-3η dimer

Assays:
14-3-3β = target: T1, 14-3-3β (human, UniProt P31946 1-246); experiment: native gel or EMSA; 12% native TBE-PAGE; 240 pmol of 14-3-3 and 120 pmol of the Nedd4-2 construct loaded; details: both partners purified
T1 construct: 14-3-3 protein beta, human
T1 sequence (looked up): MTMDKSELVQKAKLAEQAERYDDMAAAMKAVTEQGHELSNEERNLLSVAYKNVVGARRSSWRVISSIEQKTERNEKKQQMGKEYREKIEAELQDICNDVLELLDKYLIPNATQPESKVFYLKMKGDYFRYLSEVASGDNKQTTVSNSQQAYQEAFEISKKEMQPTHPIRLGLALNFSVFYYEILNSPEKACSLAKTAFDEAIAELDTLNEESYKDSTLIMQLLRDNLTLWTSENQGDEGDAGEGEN

14-3-3γ = target: T2, 14-3-3γ (human, UniProt P61981 2-247); experiment: as above; details: both partners purified
T2 construct: 14-3-3 protein gamma, human
T2 sequence: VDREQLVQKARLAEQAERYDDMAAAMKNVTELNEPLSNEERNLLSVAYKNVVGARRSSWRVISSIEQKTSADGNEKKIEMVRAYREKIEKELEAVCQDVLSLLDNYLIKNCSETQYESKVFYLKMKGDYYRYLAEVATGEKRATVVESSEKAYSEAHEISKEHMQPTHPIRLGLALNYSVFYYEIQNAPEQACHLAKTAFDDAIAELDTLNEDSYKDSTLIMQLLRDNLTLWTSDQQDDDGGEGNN

14-3-3ε = target: T3, 14-3-3ε (human, UniProt P62258 1-255); experiment: as above; details: both partners purified
T3 construct: 14-3-3 protein epsilon, human
T3 sequence (looked up): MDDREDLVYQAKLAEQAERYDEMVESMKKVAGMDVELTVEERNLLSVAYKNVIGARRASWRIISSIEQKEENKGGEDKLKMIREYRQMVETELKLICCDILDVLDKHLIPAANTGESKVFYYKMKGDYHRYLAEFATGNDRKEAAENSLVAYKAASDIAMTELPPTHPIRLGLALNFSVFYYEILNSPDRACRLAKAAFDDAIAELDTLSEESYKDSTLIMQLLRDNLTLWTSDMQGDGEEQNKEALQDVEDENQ

14-3-3ζ = target: T4, 14-3-3ζ (human, UniProt P63104 1-245); experiment: as above; details: both partners purified
T4 construct: 14-3-3 protein zeta, human
T4 sequence (looked up): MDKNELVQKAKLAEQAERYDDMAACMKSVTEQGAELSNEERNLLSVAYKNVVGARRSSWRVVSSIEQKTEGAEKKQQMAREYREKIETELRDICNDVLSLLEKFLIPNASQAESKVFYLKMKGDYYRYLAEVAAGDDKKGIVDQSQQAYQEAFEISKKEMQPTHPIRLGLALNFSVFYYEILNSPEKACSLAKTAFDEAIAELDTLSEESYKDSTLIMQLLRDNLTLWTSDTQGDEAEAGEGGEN

14-3-3σ = target: T5, 14-3-3σ (human, UniProt P31947 1-248); experiment: as above; details: both partners purified
T5 construct: 14-3-3 protein sigma, human
T5 sequence (looked up): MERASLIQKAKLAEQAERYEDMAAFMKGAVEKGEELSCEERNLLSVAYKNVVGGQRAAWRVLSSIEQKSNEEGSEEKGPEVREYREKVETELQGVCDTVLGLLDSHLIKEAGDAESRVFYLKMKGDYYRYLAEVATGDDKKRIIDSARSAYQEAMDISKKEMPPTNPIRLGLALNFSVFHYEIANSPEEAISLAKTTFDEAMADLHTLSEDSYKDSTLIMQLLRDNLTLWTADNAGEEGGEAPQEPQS

14-3-3τ = target: T6, 14-3-3τ (human, UniProt P27348 1-245); experiment: as above; details: both partners purified
T6 construct: 14-3-3 protein tau (theta), human
T6 sequence (looked up): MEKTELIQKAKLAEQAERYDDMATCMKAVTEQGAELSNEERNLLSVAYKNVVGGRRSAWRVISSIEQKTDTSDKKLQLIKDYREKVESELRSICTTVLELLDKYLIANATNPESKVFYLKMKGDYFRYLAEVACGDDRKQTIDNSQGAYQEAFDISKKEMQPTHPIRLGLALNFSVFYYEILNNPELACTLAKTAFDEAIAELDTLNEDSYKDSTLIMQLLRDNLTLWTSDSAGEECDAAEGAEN

14-3-3η [1] = target: B8; experiment: AUC; sedimentation velocity, 20 °C, 20 mM Tris-HCl pH 7.5, 150 mM NaCl, 1 mM TCEP; 1 μM 14-3-3η with Nedd4-2^335–455 variants (0.05 – 5 μM); apparent KD, sw isotherm fitted with A + B ⇌ AB, 14-3-3η dimer + one Nedd4-2 molecule; details: both partners purified
14-3-3η [2] = target: B8; experiment: native gel or EMSA; 12% native TBE-PAGE; 240 pmol of 14-3-3 and 120 pmol of the Nedd4-2 construct loaded; details: both partners purified
[3] = target: the molecule itself; experiment: SEC-SAXS; Superdex 200 Increase 5/150 GL, 20 mM Tris-HCl pH 7.5, 150 mM NaCl, 1 mM TCEP, 3% glycerol, 293.15 K; loaded 2.2 mg/ml Nedd4-2^186–975, 2 mg/ml 14-3-3η, 8.9 mg/ml complex (1:2, 60 μM)

B1: phosphorylated Nedd4-2^335–455 (domain or fragment, human, UniProt Q96PU5 335-455, looked up)
chain: SSRLRSCSVTDAVAEQGHLPPPSAPAGRARSSTVTGGEEPTPSVAYVHTTPGLPSGWEERKDAKGRTYYVNHNNRTTTWTRPIMQLAEDGASGSATNSNNHLIEPQIRRPRSLSSPTVTLS
modifications: phosphoserine at 342, phosphothreonine at 367, phosphoserine at 448
notes: source: E. coli BL21 (DE3), purified (Chelating Sepharose, TEV cleavage, Superdex 75), phosphorylated by PKA in vitro; not shown: His6, N-terminal, cleaved; GB1 domain of protein G, N-terminal, cleaved
binding result (14-3-3β): binds
binding result (14-3-3γ): binds
binding result (14-3-3ε): binds
binding result (14-3-3ζ): binds
binding result (14-3-3σ): binds
binding result (14-3-3τ): binds
Kd (14-3-3η [1]): < 30 nM
stoichiometry N (14-3-3η [1]): 2 14-3-3η protomers per Nedd4-2 protomer

B2: Nedd^335-455pS342 + pT367 (domain or fragment, human, UniProt Q96PU5 335-455, looked up)
chain: SSRLRSCSVTDAVAEQGHLPPPSAPAGRARSSTVTGGEEPTPSVAYVHTTPGLPSGWEERKDAKGRTYYVNHNNRTTTWTRPIMQLAEDGASGSATNSNNHLIEPQIRRPRSLASPTVTLS
modifications: phosphoserine at 342, phosphothreonine at 367
notes: as for B1
binding result (14-3-3η [2]): binds

B3: Nedd^335-455pT367 + pS448 (domain or fragment, human, UniProt Q96PU5 335-455, looked up)
chain: SSRLRSCAVTDAVAEQGHLPPPSAPAGRARSSTVTGGEEPTPSVAYVHTTPGLPSGWEERKDAKGRTYYVNHNNRTTTWTRPIMQLAEDGASGSATNSNNHLIEPQIRRPRSLSSPTVTLS
modifications: phosphothreonine at 367, phosphoserine at 448
notes: as for B1
binding result (14-3-3η [2]): binds

Kd (14-3-3η [1]): 530 ± 30 nM
B4: Nedd^335-455pT367 (domain or fragment, human, UniProt Q96PU5 335-455, looked up)
chain: SSRLRSCAVTDAVAEQGHLPPPSAPAGRARSSTVTGGEEPTPSVAYVHTTPGLPSGWEERKDAKGRTYYVNHNNRTTTWTRPIMQLAEDGASGSATNSNNHLIEPQIRRPRSLASPTVTLS
modifications: phosphothreonine at 367
notes: as for B1

Kd (14-3-3η [1]): 400 ± 100 nM
B5: Nedd^335-455pS342 (domain or fragment, human, UniProt Q96PU5 335-455, looked up)
chain: SSRLRSCSVTDAVAEQGHLPPPSAPAGRARSSAVTGGEEPTPSVAYVHTTPGLPSGWEERKDAKGRTYYVNHNNRTTTWTRPIMQLAEDGASGSATNSNNHLIEPQIRRPRSLASPTVTLS
modifications: phosphoserine at 342
notes: as for B1

Kd (14-3-3η [1]): < 30 nM
B6: Nedd^335-455pS342 + pS448 (domain or fragment, human, UniProt Q96PU5 335-455, looked up)
chain: SSRLRSCSVTDAVAEQGHLPPPSAPAGRARSSAVTGGEEPTPSVAYVHTTPGLPSGWEERKDAKGRTYYVNHNNRTTTWTRPIMQLAEDGASGSATNSNNHLIEPQIRRPRSLSSPTVTLS
modifications: phosphoserine at 342, phosphoserine at 448
notes: The same variant was used in native PAGE, SV-AUC and for the crystal with 14-3-3ηΔC; source: E. coli BL21 (DE3), purified (Chelating Sepharose, TEV cleavage, Superdex 75), phosphorylated by PKA in vitro; not shown: His6, N-terminal, cleaved; GB1 domain of protein G, N-terminal, cleaved

B7: Nedd^335-455pS448 (domain or fragment, human, UniProt Q96PU5 335-455, looked up)
chain: SSRLRSCAVTDAVAEQGHLPPPSAPAGRARSSAVTGGEEPTPSVAYVHTTPGLPSGWEERKDAKGRTYYVNHNNRTTTWTRPIMQLAEDGASGSATNSNNHLIEPQIRRPRSLSSPTVTLS
modifications: phosphoserine at 448
notes: also called pSer^448; source: E. coli BL21 (DE3), purified (Chelating Sepharose, TEV cleavage, Superdex 75), phosphorylated by PKA in vitro; not shown: His6, N-terminal, cleaved; GB1 domain of protein G, N-terminal, cleaved
binding result (14-3-3η [2]): binds

Binder: B8
stoichiometry N [3]: 2
